Numbering of substitutions follows the chain as printed.

The target in data set [1] is T1, DnmA[6AA*] (Bacillus subtilis, UniProt O31504 1-879, K470A;M620A;N748A;L780A;K781A;D783A).
T1 sequence: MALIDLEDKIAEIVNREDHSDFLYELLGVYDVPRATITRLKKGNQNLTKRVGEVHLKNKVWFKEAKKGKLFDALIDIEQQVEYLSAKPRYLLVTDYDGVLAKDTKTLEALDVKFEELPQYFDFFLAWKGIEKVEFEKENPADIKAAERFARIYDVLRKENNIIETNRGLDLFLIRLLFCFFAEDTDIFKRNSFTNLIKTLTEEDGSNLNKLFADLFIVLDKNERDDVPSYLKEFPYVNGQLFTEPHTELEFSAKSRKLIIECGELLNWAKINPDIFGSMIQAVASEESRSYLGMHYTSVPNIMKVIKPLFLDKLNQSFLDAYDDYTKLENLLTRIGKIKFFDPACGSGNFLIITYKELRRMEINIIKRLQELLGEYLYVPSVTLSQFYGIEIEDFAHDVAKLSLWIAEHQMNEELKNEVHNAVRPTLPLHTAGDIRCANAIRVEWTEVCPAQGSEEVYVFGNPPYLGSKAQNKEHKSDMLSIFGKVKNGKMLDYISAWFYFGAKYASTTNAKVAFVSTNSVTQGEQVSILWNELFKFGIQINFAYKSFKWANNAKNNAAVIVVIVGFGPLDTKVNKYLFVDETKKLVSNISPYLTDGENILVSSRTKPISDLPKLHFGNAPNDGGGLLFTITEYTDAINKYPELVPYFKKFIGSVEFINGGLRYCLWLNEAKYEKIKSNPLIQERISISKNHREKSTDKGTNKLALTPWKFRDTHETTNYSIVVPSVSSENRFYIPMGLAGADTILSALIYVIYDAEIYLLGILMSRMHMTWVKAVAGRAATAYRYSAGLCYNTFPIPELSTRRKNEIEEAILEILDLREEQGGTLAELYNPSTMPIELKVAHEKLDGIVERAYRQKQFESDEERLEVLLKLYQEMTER
Description: EMSA; EMSA: 5x buffer 500 mM Tris-HCl pH 8, 1.25 M NaCl, 10% glycerol (1x: 100 mM Tris, 250 mM NaCl, 2% glycerol), 5 nM probe, 30 min at 25 C; 6% native PAGE in 1x TBE on ice. The conditions noted are these: protein: recombinant; tags: His-SUMO tag (pE-SUMO) removed by SUMO protease; label: 5' IRDye700 on strand 1; 5' IRDye800 on strand 2; blunt.

Data set [2] deals with T2, DnmA[Y465A] (Bacillus subtilis, UniProt O31504 1-879, Y465A).
T2 sequence: T1 sequence with Y465A, A470K, A620M, A748N, A780L, A781K, A783D
The data set is described as above. The conditions noted are these: protein: recombinant; tags: His-SUMO tag (pE-SUMO) removed by SUMO protease; label: 5' IRDye700 on strand 1; 5' IRDye800 on strand 2; blunt.

B1: unmethylated dsDNA (oTMN67/oTMN68) (dsDNA)
DNA 1: CAAAACAGGATATGAAATAGTATTGGACGAGAGCTTTTTGGTGGCTTATACTATAG
DNA 2: CTATAGTATAAGCCACCAAAAAGCTCTCGTCCAATACTATTTCATATCCTGTTTTG
Turning to B1, the “apparent K (half saturation)” value in data set [1] is 458 ± 185 nM; in data set [2] it was 164 ± 26.8 nM.

For the origin of these results see PMC9973331, “DNA Methylation and RNA-DNA Hybrids Regulate the Single-Molecule Localization of a DNA Methyltransferase on the Bacterial Nucleoid”.
